Test results published in PMC9896932, “Apo and ligand-bound high resolution Cryo-EM structures of the human Kv3.1 channel reveal a novel binding site for positive modulators” (PNAS Nexus, 2022).

Target: the molecule itself
Assay: cryo-EM structure; purified flWT-Kv3.1a in LMNG 0.01%, Tris 20 mM pH 7.5, KCl 200 mM, DTT 1 mM; 2 mg/ml on the grid; apo (2.65 Å) and with 500 µM Lu AG00563 (3.0 Å), same organisation of subunits in both

B1: wild type full length human Kv3.1 isoform a tetramer (natural protein, UniProt P48547 1-511, looked up)
chain: MGQGDESERIVINVGGTRHQTYRSTLRTLPGTRLAWLAEPDAHSHFDYDPRADEFFFDRHPGVFAHILNYYRTGKLHCPADVCGPLYEEELAFWGIDETDVEPCCWMTYRQHRDAEEALDSFGGAPLDNSADDADADGPGDSGDGEDELEMTKRLALSDSPDGRPGGFWRRWQPRIWALFEDPYSSRYARYVAFASLFFILVSITTFCLETHERFNPIVNKTEIENVRNGTQVRYYREAETEAFLTYIEGVCVVWFTFEFLMRVIFCPNKVEFIKNSLNIIDFVAILPFYLEVGLSGLSSKAAKDVLGFLRVVRFVRILRIFKLTRHFVGLRVLGHTLRASTNEFLLLIIFLALGVLIFATMIYYAERIGAQPNDPSASEHTHFKNIPIGFWWAVVTMTTLGYGDMYPQTWSGMLVGALCALAGVLTIAMPVPVIVNNFGMYYSLAMAKQKLPKKKKKHIPRPPQLGSPNYCKSVVNSPHHSTQSDTCPLAQEEILEINRAGRKPLRGMSI
notes: Kv3.1 (KCNC1), human, canonical isoform a, wild type, full length; C-terminal prescission 3C site followed by GFP, removed by HRV 3C protease on elution from the resin; The GFP tag was still on the protein when it was captured on the anti-GFP resin (co-purification statement); In the model residues 120-191, 218-239, 268-280, 295-311 and 372-376 were not built; also called flWT-Kv3.1a; Kv3.1a; …
stoichiometry N: 4
